Numbering of substitutions follows the chain as printed. Numbers in names are those of the source. Values belong to the binder of their own block, whether it stands above or below them.
How the values were obtained:
[1] = biological target: T1, PDL1 expressed on recombinant CHO cells (CHO-K1/PDL1; aAPC CHO-PDL1) (UniProt Q9NZQ7 19-290, limits assumed); assay: cell-based or functional assay
PDL1-His = biological target: T2, PDL1-His (UniProt Q9NZQ7 19-238, limits assumed); assay: BLI (OCTET R2), Fc-tagged antibody on protein A probes, PDL1-His as mobile phase
T2 construct: not shown: His tag

[2] = biological target: T1, PDL1 expressed on recombinant CHO cells …; assay: cell-based or functional assay; remark: listed apart in the source
[3] = biological target: T1, PDL1 expressed on recombinant CHO cells …; assay: cell-based or functional assay; remark: listed apart in the source

T2 sequence (Q9NZQ7 19-238 limits assumed): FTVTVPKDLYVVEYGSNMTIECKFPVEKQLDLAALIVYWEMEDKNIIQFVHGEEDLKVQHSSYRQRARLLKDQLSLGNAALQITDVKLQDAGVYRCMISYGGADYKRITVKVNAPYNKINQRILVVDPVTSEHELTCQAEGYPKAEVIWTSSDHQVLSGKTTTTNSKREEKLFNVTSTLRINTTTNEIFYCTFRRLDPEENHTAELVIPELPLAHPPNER
T1 sequence (Q9NZQ7 19-290 limits assumed): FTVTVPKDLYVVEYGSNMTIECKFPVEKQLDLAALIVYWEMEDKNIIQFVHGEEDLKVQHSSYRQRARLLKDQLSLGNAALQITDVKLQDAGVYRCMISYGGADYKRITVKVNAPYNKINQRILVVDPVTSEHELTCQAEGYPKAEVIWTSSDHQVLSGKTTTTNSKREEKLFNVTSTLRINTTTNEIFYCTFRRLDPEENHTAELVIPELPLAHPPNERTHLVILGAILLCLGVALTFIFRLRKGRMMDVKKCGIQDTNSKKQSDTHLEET

B2: 17-A06 (VHH fused to human IgG1 Fc) (Fc fusion, not shown: a dimerising Fc or GST)
chain: MAQVKLEESGGGLVQAGGSLRLSCVASGRSFITYAVGWFRQAPGKEREFVASINWSGAMTYYTDSVNGRFAISRDNAKNTVYLQMNNLKLEDTAVYYCASTISAVTPTNGYQNWGQGTQVTVSS
EC50 of PD-1/PDL1 blocking against Nivolumab ([…] µg/mL), same reporter assay [2]: > 0.322 µg/mL
EC50 of the PD1/PDL1 Block Assay (luciferase fold of induction, Jurkat-PD1-NFAT-Luc + aAPC CHO-PDL1); printed as 03-17-A06; the table gives no unit, the axis is in µg/mL [3]: 1.96 µg/mL

B4: 29-H9 (VHH fused to human IgG1 Fc) (Fc fusion, not shown: a dimerising Fc or GST)
chain: RLQLVESGGGLVQAGGSLRLSCAASGFTFSTYAMSWYRGVPEKERELVAFISSDGGGTTYRDSVKGRFTISRDNGKNTVYLQMNSLKPEDTGVYYCARGLAQIWGQGTQVTVSS
EC50 of PD-1/PDL1 blocking against Nivolumab ([…] µg/mL), same reporter assay [2]: > 0.322 µg/mL
EC50 of the PD1/PDL1 Block Assay (luciferase fold of induction, Jurkat-PD1-NFAT-Luc + aAPC CHO-PDL1); printed as 03-29-H9; the table gives no unit, the axis is in µg/mL [3]: 1.44 µg/mL

B5: 17-A06-G4S-29-H9 (Fc fusion)
chain: MAQVKLEESGGGLVQAGGSLRLSCVASGRSFITYAVGWFRQAPGKEREFVASINWSGAMTYYTDSVNGRFAISRDNAKNTVYLQMNNLKLEDTAVYYCASTISAVTPTNGYQNWGQGTQVTVSSGGGGSRLQLVESGGGLVQAGGSLRLSCAASGFTFSTYAMSWYRGVPEKERELVAFISSDGGGTTYRDSVKGRFTISRDNGKNTVYLQMNSLKPEDTGVYYCARGLAQIWGQGTQVTVSS
notes: also called bivalent antibody 17-A06-G4S-29-H9; bivalent PDL1 antibody; not shown: Fc tag ('Fc-tagged')
EC50 of the PD1/PDL1 Block Assay (luciferase fold of induction, Jurkat-PD-1-NFAT-Luc + aAPC CHO-PDL1) [1]: 1.35 µg/mL
Kd (PDL1-His): 2.73 nM
koff (PDL1-His): 0.00048 s⁻¹
kon (PDL1-His): 176000 M⁻¹ s⁻¹

Now from value to binder:

EC50 of the PD1/PDL1 Block Assay (luciferase fold of induction, Jurkat-PD-1-NFAT-Luc + aAPC CHO-PDL1) [1]: 2.06 µg/mL
Kd (PDL1-His): 4.2 nM
koff (PDL1-His): 0.000649 s⁻¹
kon (PDL1-His): 155000 M⁻¹ s⁻¹
B1: 17-A06-G4S-23-G3 (Fc fusion)
chain: MAQVKLEESGGGLVQAGGSLRLSCVASGRSFITYAVGWFRQAPGKEREFVASINWSGAMTYYTDSVNGRFAISRDNAKNTVYLQMNNLKLEDTAVYYCASTISAVTPTNGYQNWGQGTQVTVSSGGGGSMAAVQLVESGGGLVQAGGSLRLSCVASGRSFITYAVGWFRQAPGKEREFVASVNWSGAMTYYADAVNGRFTISRDNAKNTVYLQMNNLKLEDTAVYYCAATISAVTPTNGYQNWGQGTQVTVSS
notes: also called bivalent antibody 17-A06-G4S-23-G3; bivalent PDL1 antibody; not shown: Fc tag ('Fc-tagged')

EC50 of PD-1/PDL1 blocking against Nivolumab ([…] µg/mL), same reporter assay [2]: > 0.322 µg/mL
EC50 of the PD1/PDL1 Block Assay (luciferase fold of induction, Jurkat-PD1-NFAT-Luc + aAPC CHO-PDL1); printed as 03-23-G3; the table gives no unit, the axis is in µg/mL [3]: 3.45 µg/mL
B3: 23-G3 (VHH fused to human IgG1 Fc) (Fc fusion, not shown: a dimerising Fc or GST)
chain: B2 chain with Q3A, K5Q, E7V, I53V, T63A, S65A, A71T, S100A

Kd (PDL1-His): 1.92 nM
koff (PDL1-His): 0.000455 s⁻¹
kon (PDL1-His): 238000 M⁻¹ s⁻¹
B6: 23-G3-G4S-29-H9 (Fc fusion)
chain: B5 chain with Q3A, K5Q, E7V, I53V, T63A, S65A, A71T, S100A
notes: also called bivalent antibody 23-G3-G4S-29-H9; bivalent PDL1 antibody; not shown: Fc tag ('Fc-tagged')
